Results taken from patent publication US12227771B2, “Expression systems and methods of use thereof” (Janssen Pharmaceutica NV, priority 2019, dated 2025).

Molecular target: T1, human α9α10 nAChR (Homo sapiens, UniProt Q9GZZ6+Q9UGM1)
T1 construct: expressed in transfected cells; host or cells: HEK293T
Assay: FLIPR calcium assay of HEK293T cells co-transfected with α9α10 nAChR and cDNA clones, response evoked by 200 μM ACh
Type: cell-based
Details: for FLIPR Response (Fold/Baseline) / functional expression of co-transfected α9α10 nAChR in cDNA library screen / combined effect of TMIE and CHAT on functional responses from α9α10 nAChR: 200 μM ACh; for FLIPR Response (Fold/Baseline): 180 s; for FLIPR response evoked by 200 μM ACh: HEK293T transfected with α9α10 nAChR and the named protein; for functional expression of co-transfected α9α10 nAChR in cDNA library screen: HEK293T, 20,000 cDNA clones; for combined effect of TMIE and CHAT on functional responses from α9α10 nAChR: HEK293T
Method: Human embryonic kidney 293T (HEK293T) cells were cultured in high glucose DMEM medium supplemented with 10% FBS, sodium pyruvate and penicillin/streptomycin. Prior to transfection, cells were seeded at ˜80-90% confluence in 384-well fluorescence imaging plate reader (FLIPR) assay plates. After a 4 hour (hr) incubation, wells of cells were individually co-transfected with human α9α10 nAChR plus one of 20,000 clones from cDNA libraries encoding most all human proteins (Origene Technologies; Rockville, Md.; Broad Institute; Cambridge, Mass.) using Fugene HD (Promega; Madison, Wis.) according to the manufacture's protocol. After two days incubation, cells were washed three times with assay buffer (137 mM NaCl, 4 mM KCl, 2 mM CaCl2, 1 mM MgCl2, 5 mM glucose, 10 mM HEPES pH7.4) and loaded with Calcium5 dye (Molecular Devices; San Jose, Calif.) and 1.25 mM probenecid for 1 hr at room temperature (RT). After three washes, the plates were placed in the FLIPR stage.
To further characterize the regulation of α9α10 nAChR expression, HEK293T cells were co-transfected with α9α10 nAChR and each of CHAT, TMIE, TMEM100, TMEM132A, TMEM132C, TMEM132D, TMEM132E and TNFRSF10A individually and in combination (Table 2).

[1] = HEK293T co-transfected with α9α10 nAChR + CHAT plus the named gene
[2] = HEK293T co-transfected with α9α10 nAChR plus the named gene

T1 sequence (Q9UGM1 23-479): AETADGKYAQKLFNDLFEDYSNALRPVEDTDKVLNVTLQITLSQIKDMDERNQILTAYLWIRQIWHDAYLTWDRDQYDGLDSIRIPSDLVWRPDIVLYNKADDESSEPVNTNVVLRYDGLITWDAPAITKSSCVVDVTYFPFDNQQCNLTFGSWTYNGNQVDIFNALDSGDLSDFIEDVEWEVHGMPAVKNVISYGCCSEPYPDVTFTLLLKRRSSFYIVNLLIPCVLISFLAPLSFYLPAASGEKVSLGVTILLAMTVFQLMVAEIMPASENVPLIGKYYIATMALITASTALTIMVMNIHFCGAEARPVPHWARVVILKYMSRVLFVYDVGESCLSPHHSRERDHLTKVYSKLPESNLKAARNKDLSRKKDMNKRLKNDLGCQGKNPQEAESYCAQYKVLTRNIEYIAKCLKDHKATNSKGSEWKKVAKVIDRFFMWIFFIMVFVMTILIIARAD
T1 sequence (Q9GZZ6 25-450): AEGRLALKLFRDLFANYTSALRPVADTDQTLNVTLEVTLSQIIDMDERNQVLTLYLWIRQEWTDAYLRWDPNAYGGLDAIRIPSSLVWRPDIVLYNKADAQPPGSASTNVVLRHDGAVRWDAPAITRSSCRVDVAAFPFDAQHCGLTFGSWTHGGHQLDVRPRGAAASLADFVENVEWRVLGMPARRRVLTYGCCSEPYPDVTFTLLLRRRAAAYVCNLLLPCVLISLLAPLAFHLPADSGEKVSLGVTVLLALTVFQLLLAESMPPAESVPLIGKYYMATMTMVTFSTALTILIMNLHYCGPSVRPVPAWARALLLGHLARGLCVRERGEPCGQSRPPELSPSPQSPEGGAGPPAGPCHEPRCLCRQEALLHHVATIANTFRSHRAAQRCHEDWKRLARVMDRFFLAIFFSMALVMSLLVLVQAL

Molecule	FLIPR Response (Fold/Baseline) [1]	FLIPR Response (Fold/Baseline) [2]	FLIPR response evoked by 200 μM ACh	functional expression of co-transfected α9α10 nAChR in cDNA library screen	combined effect of TMIE and CHAT on functional responses from α9α10 nAChR
TMIE: Transmembrane inner ear expressed protein, SEQ ID NO: 4, co-transfected cDNA clone (protein, listed as Homo sapiens) MAGWPGAGPLCVLGGAALGVCLAGVAGQLVEPSTAPPKPKPPPLTKETVVFWDMRLWHVVGIFSLFVLSIIITLCCVFNCRVPRTRKEIEARYLQRKAAKMYTDKLETVPPLNELTEVPGEDKKKKKKKKKDSVDTVAIKVEEDEKNEAKKKKGEK	2.2 Fold/Baseline	0.7 Fold/Baseline	significant FLIPR responses	enabled functional expression	synergized to enhance functional responses
TMEM132C: Transmembrane protein 132C, SEQ ID NO: 6, co-transfected cDNA clone (protein, listed as Homo sapiens) MRSEGAAPGPAAPLCGALSLLLGALLGKVIEGHGVTDNIQRFSSLPPYLPVSYHILRAETSFFLKEANQDLLRNSSLQARVESFFTYKTRQPPVLNASYGPFSVEKVVPLDLMLTSNFLGPTNKFSFDWKLKAHILRDKVYLSRPKVQVLFHIMGRDWDDHGAGEKLPCLRVFAFRETREVRGSCRLKGDLGLCVAELELLSSWFSAPTVGAGRKKSMDQPEGTPVELYYTVHPGNERGDCAGGDFRKGNAIRPGKDGLEETTSHLQRIGTVGLYRAQDSAQLSELRLDGNVVIWLPSRPVKQGEVVTAYVTISSNSSVDLFILRAKVKKGVNILSAQTREPRQWGVKQEVGSGGKHVTATVACQRLGPSPRNRSSSLFNEVVQMNFEIASFSSLSGTQPITWQVEYPRKGTTDIAVSEIFVSQKDLVGIVPLAMDTEILNTAVLTGKTVAMPIKVVSVEENSAVMDISESVECKSTDEDVIKVSERCDYIFVNGKEIKGKMDAVVNFTYQYLSAPLCVTVWVPRLPLQIEVSDTELSQIKGWRVPIVTNKRPTRESEDEDEEERRGRGCALQYQHATVRVLTQFVSEGAGPWGQPNYLLSPNWQFDITHLVADFMKLEEPHVATLQDSRVLVGREVGMTTIQVLSPLSDSILAEKTITVLDDKVSVTDLAIQLVAGLSVALYPNAENSKAVTAVVTAEEVLRTPKQEAVFSTWLQFSDGSVTPLDIYDTKDFSLAATSQDEAVVSVPQPRSPRWPVVVAEGEGQGPLIRVDMTIAEACQKSKRKSILAVGVGNVRVKFGQNDADSSPGGDYEEDEIKNHASDRRQKGQHHERTGQDGHLYGSSPVEREEGALRRATTTARSLLDNKVVKNSRADGGRLAGEGQLQNIPIDFTNFPAHVDLPKAGSGLEENDLVQTPRGLSDLEIGMYALLGVFCLAILVFLINCATFALKYRHKQVPLEGQASMTHSHDWVWLGNEAELLESMGDAPPPQDEHTTIIDRGPGACEESNHLLLNGGSHKHVQSQIHRSADSGGRQGREQKQDPLHSPTSKRKKVKFTTFTTIPPDDSCPTVNSIVSSNDEDIKWVCQDVAVGAPKELRNYLEKLKDKA	2.0 Fold/Baseline	0.7 Fold/Baseline	–	enabled functional expression	–
TMEM132D: Transmembrane protein 132D, SEQ ID NO: 7, co-transfected cDNA clone (protein, listed as Homo sapiens) MCPSEMGTLWHHWSPVLISLAALFSKVTEGRGILESIQRFSLLPTYLPVTYHINNADVSFFLKEANQDIMRNSSLQSRVESFLIYKSRRLPVLNASYGPFSIEQVVPQDLMLPSNPFGFTNKFSLNWKLKAHILRDKVYLSRPKVQVLFHIMGRDWDDRSAGEKLPCLRVFAFRETREVRGSCRLQGDLGLCVAELELLSSWFSPPTVVAGRRKSVDQPEGTPVELYYTVHPGGERGDCVREDARRSNGIRTGHSDIDESGPPLQRIGSIFLYQTHRKPSLRELRLDNSVAIHYIPKTVRKGDVLTFPVSISRNSTEDRFTLRAKVKKGVNIIGVRASSPSIWDVKERTDYTGKYAPAVIVCQKKAAGSENSADGASYEVMQIDVEVEEPGDLPATQLVTWQVEYPGEITSDLGVSKIYVSPKDLIGVVPLAMEAEILNTAILTGKTVAVPVKVVSVEDDGTVTELLESVECRSSDEDVIKVSDRCDYVFVNGKEMKGKVNVVVNFTYQHLSSPLEMTVWVPRLPLQIEVSDTELNQIKGWRVPIVSSRRPAGDSEEEEDDERRGRGCTLQYQHAMVRVLTQFVAEAAGPGGHLAHLLGSDWQVDITELINDFMQVEEPRIAKLQGGQILMGQELGMTTIQILSPLSDTILAEKTITVLDEKVTITDLGVQLVTGLSLSLQLSPGSNRAIFATAVAQELLQRPKQEAAISCWVQFSDGSVTPLDIYDGKDFSLMATSLDEKVVSIHQDPKFKWPIIAAETEGQGTLVKVEMVISESCQKSKRKSVLAVGTANIKVKFGQNDANPNTSDSRHTGAGVHMENNVSDRRPKKPSQEWGSQEGQYYGSSSMGLMEGRGTTTDRSILQKKKGQESLLDDNSHLQTIPSDLTSFPAQVDLPRSNGEMDGNDLMQASKGLSDLEIGMYALLGVFCLAILVFLINCVTFALKYRHKQVPFEEQEGMSHSHDWVGLSNRTELLENHINFASSQDEQITAIDRGMDFEESKYLLSTNSQKSINGQLFKPLGPIIIDGKDQKSEPPTSPTSKRKRVKFTTFTAVSSDDEYPTRNSIVMSSEDDIKWVCQDLDPGDCKELHNYMERLHENV	2.6 Fold/Baseline	0.4 Fold/Baseline	–	enabled functional expression	–
TMEM132A: Transmembrane protein 132A, SEQ ID NO: 5, co-transfected cDNA clone (protein, listed as Homo sapiens) MCARMAGRTTAAPRGPYGPWLCLLVALALDVVRVDCGQAPLDPVYLPAALELLDAPEHFRVQQVGHYPPANSSLSSRSETFLLLQPWPRAQPLLRASYPPFATQQVVPPRVTEPHQRPVPWDVRAVSVEAAVTPAEPYARVLFHLKGQDWPPGSGSLPCARLHATHPAGTAHQACRFQPSLGACVVELELPSHWFSQASTTRAELAYTLEPAAEGPGGCGSGEENDPGEQALPVGGVELRPADPPQYQEVPLDEAVTLRVPDMPVRPGQLFSATLLLRHNFTASLLTLRIKVKKGLHVTAARPAQPTLWTAKLDRFKGSRHHTTLITCHRAGLTEPDSSPLELSEFLWVDFVVENSTGGGVAVTRPVTWQLEYPGQAPEAEKDKMVWEILVSERDIRALIPLAKAEELVNTAPLTGVPQHVPVRLVTVDGGGALVEVTEHVGCESANTQVLQVSEACDAVFVAGKESRGARGVRVDFWWRRLRASLRLTVWAPLLPLRIELTDTTLEQVRGWRVPGPAEGPAEPAAEASDEAERRARGCHLQYQRAGVRFLAPFAAHPLDGGRRLTHLLGPDWLLDVSHLVAPHARVLDSRVASLEGGRVVVGREPGVTSIEVRSPLSDSILGEQALAVTDDKVSVLELRVQPVMGISLTLSRGTAHPGEVTATCWAQSALPAPKQEVALSLWLSFSDHTVAPAELYDRRDLGLSVSAEEPGAILPAEEQGAQLGVVVSGAGAEGLPLHVALHPPEPCRRGRHRVPLASGTAWLGLPPASTPAPALPSSPAWSPPATEATMGGKRQVAGSVGGNTGVRGKFERAEEEARKEETEAREEEEEEEEEMVPAPQHVTELELGMYALLGVFCVAIFIFLVNGVVFVLRYQRKEPPDSATDPTSPQPHNWVWLGTDQEELSRQLDRQSPGPPKGEGSCPCESGGGGEAPTLAPGPPGGTTSSSSTLARKEAGGRRKRVEFVTFAPAPPAQSPEEPVGAPAVQSILVAGEEDIRWVCEDMGLKDPEELRNYMERIRGSS	2.5 Fold/Baseline	0.3 Fold/Baseline	–	enabled functional expression	–
CHAT: Choline O-acetyltransferase, SEQ ID NO: 3, co-transfected cDNA clone (protein, listed as Homo sapiens) MAAKTPSSEESGLPKLPVPPLQQTLATYLQCMRHLVSEEQFRKSQAIVQQFGAPGGLGETLQQKLLERQEKTANWVSEYWLNDMYLNNRLALPVNSSPAVIFARQHFPGTDDQLRFAASLISGVLSYKALLDSHSIPTDCAKGQLSGQPLCMKQYYGLFSSYRLPGHTQDTLVAQNSSIMPEPEHVIVACCNQFFVLDVVINFRRLSEGDLFTQLRKIVKMASNEDERLPPIGLLTSDGRSEWAEARTVLVKDSTNRDSLDMIERCICLVCLDAPGGVELSDTHRALQLLHGGGYSKNGANRWYDKSLQFVVGRDGTCGVVCEHSPFDGIVLVQCTEHLLKHMTQSSRKLIRADSVSELPAPRRLRWKCSPEIQGHLASSAEKLQRIVKNLDFIVYKFDNYGKTFIKKQKCSPDAFIQVALQLAFYRLHRRLVPTYESASIRRFQEGRVDNIRSATPEALAFVRAVTDHKAAVPASEKLLLLKDAIRAQTAYTVMAITGMAIDNHLLALRELARAMCKELPEMFMDETYLMSNRFVLSTSQVPTTTEMFCCYGPVVPNGYGACYNPQPETILFCISSFHSCKETSSSKFAKAVEESLIDMRDLCSLLPPTESKPLATKEKATRPSQGHQP	–	–	significant FLIPR responses	enabled functional expression	synergized to enhance functional responses
